Test results as given in the Human Domainome abundance scans (Beltran et al. 2025).

B1: Gamma-crystallin C, residues 4 to 79; numbered along this chain, P07315 (parent)
chain: ITFYEDRAFQGRSYETTTDCPNLQPYFSRCNSIRVESGCWMLYERPNYQGQQYLLRRGEYPDYQQWMGLSDSIRSC

Variants of: B1
Assay: abundance fitness (aPCA) (normalised: wild type 0, dead -1); higher = more abundant; growth selection in yeast, the domain comes from the species named
Settings: Homo sapiens

Abundance fitness, by site and new letter:
V35: E -1.11; G -1.01; I -0.916; L -0.038; M -0.84; P -1.03; Q -0.854; R -0.893; S -0.589; T -0.081; W -1.08; Y -0.827
E36: A 0.048; D 0.021; F -0.131; G -0.031; I -0.201; K -0.074; L -0.078; M 0.019; N -0.004; P 0.018; Q -0.081; R -0.069; S -0.032; T 0.11; V 0.008; W 0.003
S37: A -0.255; C -0.091; E -0.12; G -0.061; H -0.142; I 0.072; L -0.301; M -0.031; Q -0.124; R -0.004; T 0.028; V 0.066; W -0.113
G38: A -0.008; C -0.005; D 0.171; E -0.009; H -0.309; I -0.202; K -0.177; L -0.177; M -0.141; P -0.108; R -0.153; S 0; T -0.191; W -0.427; Y -0.109
C39: A -0.051; D -0.133; E -0.045; F -0.036; G 0.08; I -0.014; L -0.074; M -0.027; N -0.12; P 0.092; Q -0.088; R -0.071; S 0.062; T -0.012; V 0.011; W 0.031; Y -0.014
W40: A 0.036; C 0.03; D -0.849; E -0.978; G -0.435; I 0.01; L -0.243; M -0.496; P -0.939; R -0.969; S -0.451; T -0.43; V 0.088; Y -0.16
M41: A -0.07; C -0.041; D -0.133; E 0.059; F 0.104; H -0.186; K -0.056; L -0.056; N -0.132; P -0.981; Q 0.046; R -0.018; S 0.068; V -0.115; W 0.039; Y 0.032
L42: A -0.102; C -0.031; D -0.857; E -1.16; G -0.063; M 0.045; N -0.967; P -0.864; Q -0.888; R -1.16; S -0.287; T -0.095; V -0.011; W -0.919; Y -0.728
Y43: A -0.156; C 0.111; D -0.817; F -0.15; G -0.775; H 0.055; L -0.889; M -0.296; P -1.03; Q -0.86; R -0.926; S 0.094; T -0.249; V -1.05; W -0.139
E44: A -0.034; C 0.068; D 0.022; F -0.414; G 0.02; H -0.137; I -0.02; L -0.006; M 0.355; P -0.283; Q 0.049; R 0.002; S -0.077; T -0.206; V -0.147; W -0.372
R45: A -0.025; C -0.142; D -0.11; F 0.032; G 0.061; H -0.057; I -0.16; K 0.089; L -0.146; M -0.001; N -0.169; P -0.955; Q -0.13; S -0.127; T -0.001; V -0.15; W -0.04; Y 0.187
